Where a chain is given by its changes, count along the chain named. Names may count otherwise.

Data set [1] deals with the molecule itself. The data set is described as follows: SEC; protein expressed in Rosetta-gami 2 E. coli and purified under nonreducing conditions (no TCEP); Superdex S75 or 200, 20 mM HEPES pH 7.5, 500 mM NaCl, 5% glycerol; dimer checked by SDS-PAGE with or without DTT and by mass spectrometry. For orientation: SEC sorts molecules by how far they enter the pores of the column.

A further data set has as its target Etv1 Y329S-P427S (human, UniProt P50549 326-429, Y329S;P427S). Description: X-ray crystallography; 2.9 A; EMSA: 50 mM Tris-HCl pH 7.5, 50 mM NaCl, 2 mM MgCl2, 0.01% Tween 20, 5% glycerol, 1 h at room temperature; proteins reduced with 10 mM TCEP unless stated; 10% native PAGE. Particulars: protein: recombinant; tags: N-terminal His6 removed by TEV (leaves SM); blunt.

In a further data set the target is T1, Fev Ets domain (human, UniProt Q99581 42-141).
T1 sequence: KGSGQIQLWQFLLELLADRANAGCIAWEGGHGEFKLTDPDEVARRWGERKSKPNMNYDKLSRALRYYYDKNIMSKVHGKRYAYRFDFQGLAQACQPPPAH
Description: X-ray crystallography; text cites 2YPR for the complex, but Fig. 1 uses 2YPR as Fev and Fig. 7 gives 3ZP5 as Fev-dsDNA; EMSA: 50 mM Tris-HCl pH 7.5, 50 mM NaCl, 2 mM MgCl2, 0.01% Tween 20, 5% glycerol, 1 h at room temperature; proteins reduced with 10 mM TCEP unless stated; 10% native PAGE. Particulars: protein: recombinant; tags: N-terminal His6 removed by TEV (leaves SM); chain copies: 2; blunt.

Data set [2] deals with the molecule itself. The data set is described as follows: crystal structure; DNA-free crystals; dimer seen between adjacent molecules in the crystal, with an intermolecular disulfide bond; protein purified with TCEP.
The target in another data set is Etv5 Ets domain (human, UniProt P41161 365-462). Description: X-ray crystallography; 1.95 A; Ca2+ bound near alpha4; EMSA: 50 mM Tris-HCl pH 7.5, 50 mM NaCl, 2 mM MgCl2, 0.01% Tween 20, 5% glycerol, 1 h at room temperature; proteins reduced with 10 mM TCEP unless stated; 10% native PAGE. Particulars: protein: recombinant; tags: N-terminal His6 removed by TEV (leaves SM); 3' overhang 1 nt on each strand.

The target of the next data set is Etv4 Ets domain (human, UniProt P43268 338-470). The data set is described as follows: X-ray crystallography; 2.8 A; 8 complexes per asymmetric unit; EMSA: 50 mM Tris-HCl pH 7.5, 50 mM NaCl, 2 mM MgCl2, 0.01% Tween 20, 5% glycerol, 1 h at room temperature; proteins reduced with 10 mM TCEP unless stated; 10% native PAGE. Particulars: protein: recombinant; tags: N-terminal His6 removed by TEV (leaves SM); 3' overhang 1 nt on each strand. A general note: Mobility shift assays separate free from complexed probe on a gel.

B1: Etv5 Ets domain (amino acids 365-462) (domain or fragment, human, UniProt P41161 365-462, looked up)
chain: RGSLQLWQFLVTLLDDPANAHFIAWTGRGMEFKLIEPEEVARRWGIQKNRPAMNYDKLSRSLRYYYEKGIMQKVAGERYVYKFVCDPDALFSMAFPDN
notes: Etv5 (ERM), Ets domain construct, amino acids 365-462; TEV cleavage leaves SM before the insert; The limits are those told for the crystallisation construct; also called ERM; Etv5 WT; source: E. coli BL21 (DE3) Rosetta-R3, purified with TCEP (Ni-IDA, TEV cleavage, SEC); E. coli Rosetta-gami 2, purified without TCEP; not shown: His6, N-terminal, cleaved
As to B1, the “stoichiometry N” value in data set [1] turned out to be 2.

B2: Etv4 Ets domain (amino acids 338-470) (domain or fragment, human, UniProt P43268 338-470, looked up)
chain: RGALQLWQFLVALLDDPTNAHFIAWTGRGMEFKLIEPEEVARLWGIQKNRPAMNYDKLSRSLRYYYEKGIMQKVAGERYVYKFVCEPEALFSLAFPDNQRPALKAEFDRPVSEEDTVPLSHLDESPAYLPELA
notes: Etv4 (PEA3), Ets domain construct, amino acids 338-470; TEV cleavage leaves SM before the insert; The limits are those told for the crystallised construct; also called PEA3; Etv4 WT; source: E. coli BL21 (DE3) Rosetta-R3, purified with TCEP (Ni-IDA, TEV cleavage, SEC); E. coli Rosetta-gami 2, purified without TCEP; not shown: His6, N-terminal, cleaved
Consider B2, for which the “stoichiometry N” value in data set [1] was 2.

B3: 10-bp crystallization duplex (dsDNA)
DNA 1: ACCGGAAGTG
DNA 2: CACTTCCGGT
With B3, the binding result with Etv1 Y329S-P427S and in the data set with Fev Ets domain was “binds” throughout.

B4: Fev Ets domain (amino acids 42-141) (domain or fragment, human, UniProt Q99581 42-141, looked up)
chain: T1 sequence
notes: Fev (Fifth Ewing Variant, PET-1), Ets domain construct, amino acids 42-141; TEV cleavage leaves SM before the insert; also called Fifth Ewing Variant; PET-1; source: E. coli BL21 (DE3) Rosetta-R3, purified (Ni-IDA, TEV cleavage, SEC); not shown: His6, N-terminal, cleaved
As for B4, in data set [2], the binding result is “binds”.

B5: 9-bp crystallization duplex with overhangs (dsDNA)
DNA 1: ACCGGAAGTG
DNA 2: ACTTCCGGTC
Turning to B5, the binding result with Etv5 Ets domain and with Etv4 Ets domain was “binds” throughout.

B6: Etv1^Y329S-P427S Ets domain (amino acids 326-429) (domain or fragment, human, UniProt P50549 326-429, looked up)
chain: GPTSQRRGSLQLWQFLVALLDDPSNSHFIAWTGRGMEFKLIEPEEVARRWGIQKNRPAMNYDKLSRSLRYYYEKGIMQKVAGERYVYKFVCDPEALFSMAFSDN
notes: Etv1 (Ets translocation variant 1, ER81), Ets domain construct, amino acids 326-429, with two primer-incorporated mutations; A selenomethionine form was used for phasing of the DNA complex; also called PCR mutant Ets domain; ER81; source: E. coli BL21 (DE3) Rosetta-R3, purified (Ni-IDA, TEV cleavage, SEC); not shown: His6, N-terminal, cleaved
With B6, the binding result in data set [2] is recorded as “binds”.

B7: Etv1 wild-type Ets domain (amino acids 326-429) (domain or fragment, human, UniProt P50549 326-429, looked up)
chain: B6 chain with S4Y, S102P
notes: Same limits as the crystallised Y329S-P427S construct (PDB 4AVP, 4BNC); TEV cleavage leaves SM before the insert; From Rosetta-gami 2 under nonreducing conditions it is a disulfide-linked dimer; also called WT; WT dimer; source: E. coli BL21 (DE3) Rosetta-R3, purified with TCEP (Ni-IDA, TEV cleavage, SEC); E. coli Rosetta-gami 2, purified without TCEP; not shown: His6, N-terminal, cleaved
Take B7: the “stoichiometry N” value in data set [1] worked out at 2.

For orientation: stoichiometry N means the number of molecules, sites or subunits per partner or assembly.

The values are drawn from PMC4447949, “Structures of the Ets Protein DNA-binding Domains of Transcription Factors Etv1, Etv4, Etv5, and Fev” (The Journal of Biological Chemistry, 2015).
